# Results reported in patent US7122360.
# Columns and labels:
# CREBtide = system: T1, CREBtide
# T1 sequence: EILSRRPSYRK
# Crosstide = system: T2, Crosstide
# T2 sequence: GRPRTSSFAEG
# [1] = system: T3, KKRNRTLSVA with the arginine at position n-3 changed to lysine
# T3 sequence: KKRNKTLSVA
# [2] = system: KKRNRTLSVA with the arginine at position n-5 changed to leucine
# peptide KKRNRTLSVA = system: T4, peptide KKRNRTLSVA
# T4 sequence: KKRNRTLSVA
# [3] = system: GST-MAPKAP-K1a [GST: P08515]
# Chain of GST-MAPKAP-K1a [GST: P08515] (P08515 whole entry, looked up): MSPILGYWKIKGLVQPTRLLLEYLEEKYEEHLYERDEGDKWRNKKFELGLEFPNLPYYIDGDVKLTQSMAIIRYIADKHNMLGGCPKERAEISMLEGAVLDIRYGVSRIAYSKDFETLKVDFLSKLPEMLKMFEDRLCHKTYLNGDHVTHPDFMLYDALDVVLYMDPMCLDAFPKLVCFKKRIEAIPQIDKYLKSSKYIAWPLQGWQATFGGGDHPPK
# Chain of GST-CREB [GST: P08515] (P08515 whole entry, looked up): as above
# Chain of GST-MSK1 (chain, as listed by the source): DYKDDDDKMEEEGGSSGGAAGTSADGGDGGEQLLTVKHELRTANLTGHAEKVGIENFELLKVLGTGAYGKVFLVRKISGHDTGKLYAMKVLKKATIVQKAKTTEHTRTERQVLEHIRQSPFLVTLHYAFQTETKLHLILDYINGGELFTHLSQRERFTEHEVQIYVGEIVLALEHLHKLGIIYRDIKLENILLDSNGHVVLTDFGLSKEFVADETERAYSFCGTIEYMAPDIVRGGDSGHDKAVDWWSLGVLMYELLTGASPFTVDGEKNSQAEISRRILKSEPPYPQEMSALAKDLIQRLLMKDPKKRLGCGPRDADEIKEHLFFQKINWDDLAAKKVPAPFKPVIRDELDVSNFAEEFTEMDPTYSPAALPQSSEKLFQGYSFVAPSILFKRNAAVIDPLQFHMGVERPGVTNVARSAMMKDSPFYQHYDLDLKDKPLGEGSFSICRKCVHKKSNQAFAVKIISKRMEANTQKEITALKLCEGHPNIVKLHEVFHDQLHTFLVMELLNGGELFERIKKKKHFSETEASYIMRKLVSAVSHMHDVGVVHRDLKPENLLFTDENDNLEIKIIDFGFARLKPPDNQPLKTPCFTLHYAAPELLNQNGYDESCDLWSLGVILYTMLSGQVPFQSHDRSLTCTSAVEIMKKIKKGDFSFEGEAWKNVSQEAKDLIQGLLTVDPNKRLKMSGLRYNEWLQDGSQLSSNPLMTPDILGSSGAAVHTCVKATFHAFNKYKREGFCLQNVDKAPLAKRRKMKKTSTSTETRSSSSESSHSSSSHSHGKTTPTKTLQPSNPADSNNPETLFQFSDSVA
substance,measurement,setting,value
GST-MAPKAP-K1a,Km relative to MSK1,CREBtide,Km values that were at least 200-fold higher
same,Km,Crosstide,2 to 3 µM
same,Km,GST-CREB [GST: P08515],the Km was too high to be measured
same,Km relative to KKRNRTLSVA,[1],increased the Km about 100-fold
same,Km relative to KKRNRTLSVA,[2],5 fold
same,Km and Vmax,peptide KKRNRTLSVA,almost identical Km and Vmax values as for Crosstide
GST-MAPKAP-K2,Km,GST-CREB [GST: P08515],the Km was too high to be measured
same,phosphorylation of Ser98 relative to Ser133 of CREB,GST-CREB [GST: P08515],10-fold higher level than Ser133
same,phosphorylation of substrate in vitro,heat shock protein 27,much more active towards heat shock protein 27
activated GST-MAPK2/ERK2,activity towards Crosstide after incubation with MgATP and activated MAPK2/ERK2,[3],enhanced over 100-fold
same,activity towards Crosstide after incubation with MgATP and activated MAPK2/ERK2,GST-MSK1,enhanced over 100-fold
activated GST-SAPK1/JNK1γ,activation in vitro (activity towards Crosstide),[3],did not activate
same,activation in vitro (activity towards Crosstide),GST-MSK1,did not activate
activated GST-SAPK2a/p38a,activation in vitro (activity towards Crosstide),[3],could not
same,activation in vitro (activity towards Crosstide),GST-MSK1,could also be activated similarly
activated GST-SAPK2b/p38β,activation in vitro (activity towards Crosstide),[3],could not
same,activation in vitro (activity towards Crosstide),GST-MSK1,could also be activated similarly
activated GST-SAPK3/p38γ,activation in vitro (activity towards Crosstide),[3],did not activate
same,activation in vitro (activity towards Crosstide),GST-MSK1,did not activate
activated GST-SAPK4/p38δ,activation in vitro (activity towards Crosstide),[3],did not activate
